Experimental data: article PMC5302818
Each block holds one binder with its values, some of them ahead of it.

What was measured:
BIR1-CFP (Arabidopsis) = experiment: cross number and brightness (Cross N&B) fluorescence fluctuation analysis; leaf disks of N. benthamiana transiently expressing AtRGS1-YFP with BIR1-CFP or BAK1-CFP; time series of 100 confocal images; SimFCS analysis
[1] = target: T1, BAK1-CFP (Arabidopsis), Q94F62; experiment: as above; details: remark: other sources report otherwise
T1 chain: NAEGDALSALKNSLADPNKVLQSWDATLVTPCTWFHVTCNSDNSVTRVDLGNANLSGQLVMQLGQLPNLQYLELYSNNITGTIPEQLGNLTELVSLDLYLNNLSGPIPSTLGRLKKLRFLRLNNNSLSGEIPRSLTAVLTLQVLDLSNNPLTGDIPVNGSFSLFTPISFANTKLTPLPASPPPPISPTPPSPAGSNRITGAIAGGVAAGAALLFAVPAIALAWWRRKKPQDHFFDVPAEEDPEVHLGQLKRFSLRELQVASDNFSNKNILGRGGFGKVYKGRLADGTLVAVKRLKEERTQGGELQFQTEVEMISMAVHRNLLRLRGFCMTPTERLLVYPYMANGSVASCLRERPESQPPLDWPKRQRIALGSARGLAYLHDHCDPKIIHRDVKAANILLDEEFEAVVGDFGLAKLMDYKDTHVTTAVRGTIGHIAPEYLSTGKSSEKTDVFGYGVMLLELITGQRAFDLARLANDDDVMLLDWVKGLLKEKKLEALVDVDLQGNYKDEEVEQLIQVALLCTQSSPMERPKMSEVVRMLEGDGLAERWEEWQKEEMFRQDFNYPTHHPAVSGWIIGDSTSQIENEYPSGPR

stoichiometry N (BIR1-CFP (Arabidopsis)): 1
B1: AtRGS1-YFP (natural protein)
chain: MASGCALHGGCPSDYVAVAISVICFFVLLSRSVLPCLIHKAPRTNSSSFWIPVIQVISSFNLLFSIMMSVNLLRFRTKHWWRYCYLWAVWIEGPLGFGLLMSCRITQAFQLYFIFVKKRLPPVKSYIFLPLVLLPWIFGAAIIHATKPLNDKCHMGLQWTFPVAGLHALYVLALIAFTRAVRHVEFRFDELRDLWKGILVSATSIVIWVTAFVLNEIHEEISWLQVASRFVLLVTGGILVVVFFSISSNQPLLSQISLKKRQNFEFQRMGQALGIPDSGLLFRKEEFRPVDPNEPLDKLLLNKRFRHSFMEFADSCYAGETLHFFEEVYEHGKIPEDDSIRRIYMARHIMEKFIVAGAEMELNLSHKTRQEILTTQDLTHTDLFKNALNEVMQLIKMNLVRDYWSSIYFIKFKEEESCHEAMHKEGYSFSSPRLSSVQGSDDPFYQEHMSKSSRCSSPG

stoichiometry N [1]: 1
B2: AtRGS1-YFP, Q8H1F2 1-459 (natural protein)
chain: B1 chain
